Measurements taken from US20230381331A1 (HANMI PHARM, published 2023).
Non-standard residues stand in square brackets, D forms with d. No end group written: not given here. Aib = CC(C)(N)C(=O)O

T1: human GIP receptor (human, UniProt P48546 22-466)
T1 sequence (looked up): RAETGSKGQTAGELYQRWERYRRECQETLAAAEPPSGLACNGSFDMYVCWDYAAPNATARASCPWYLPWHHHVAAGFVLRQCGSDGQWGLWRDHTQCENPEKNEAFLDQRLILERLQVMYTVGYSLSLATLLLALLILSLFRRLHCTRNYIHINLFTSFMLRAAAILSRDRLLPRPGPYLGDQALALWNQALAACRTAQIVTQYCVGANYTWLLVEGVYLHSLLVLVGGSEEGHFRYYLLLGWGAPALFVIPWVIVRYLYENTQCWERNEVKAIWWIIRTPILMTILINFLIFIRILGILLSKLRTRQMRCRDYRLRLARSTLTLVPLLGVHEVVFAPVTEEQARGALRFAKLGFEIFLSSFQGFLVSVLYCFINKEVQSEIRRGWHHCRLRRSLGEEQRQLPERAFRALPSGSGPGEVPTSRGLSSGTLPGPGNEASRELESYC

B1: GIP derivative of SEQ ID NO: 7 (peptide)
peptide: Y[Aib]EGTFISDYSIYLDAQAQQDFVNWLLAGGPSSGAPPPSC
B2: GIP derivative of SEQ ID NO: 10 (peptide)
peptide: Y[Aib]EGTFISDYSIYLDAQAAKEFIAWLLAGGPSSGAPPPSC
modifications: not fully specified
B3: GIP derivative of SEQ ID NO: 8 (peptide)
peptide: Y[Aib]EGTFISDYSIYLDAQAA[Aib]DFVNWLLAGGPSSGAPPPSC
B4: GIP derivative of SEQ ID NO: 5 (peptide)
peptide: Y[Aib]EGTFISDYSIQMDAIAQQDFVNWLLAGGPSSGAPPPSC
B5: GIP derivative of SEQ ID NO: 14 (peptide)
peptide: Y[Aib]EGTFISDYSIYLDAQAA[Aib]EFVNWLLAQKC
modifications: not fully specified
B6: GIP derivative of SEQ ID NO: 21 (peptide)
peptide: Y[Aib]EGTFISDYSI[Aib]LDKQAA[Aib]EFVNWLL[Aib]GGPSSGAPPPSC
B7: GIP derivative of SEQ ID NO: 13 (peptide)
peptide: Y[Aib]EGTFISDYSIYLDKQAA[Aib]EFVNWLLAQKC
modifications: not fully specified
B8: GIP derivative of SEQ ID NO: 1 (peptide)
peptide: Y[Aib]EGTFISDYSIAMDAIAQQDFVNWLLAQKPSSGAPPPSC
modifications: not fully specified
B9: GIP derivative of SEQ ID NO: 3 (peptide)
peptide: Y[Aib]EGTFISDYSI[Aib]MDAIAQQDFVNWLLAGGPSSGAPPPSC
B10: GIP derivative of SEQ ID NO: 4 (peptide)
peptide: Y[Aib]EGTFISDYSIYMDAIAQQDFVNWLLAGGPSSGAPPPSC
B11: GIP derivative of SEQ ID NO: 9 (peptide)
peptide: Y[Aib]EGTFISDYSIYLDAQAAKDFVNWLLAGGPSSGAPPPSC
B12: GIP derivative of SEQ ID NO: 6 (peptide)
peptide: Y[Aib]EGTFISDYSIYLDAIAQQDFVNWLLAGGPSSGAPPPSC
B13: GIP derivative of SEQ ID NO: 15 (peptide)
peptide: Y[Aib]EGTFISDYSIAMDKIAQQDFVNWLLAQKPSSGAPPPSC
modifications: not fully specified
B14: GIP derivative of SEQ ID NO: 24 (peptide)
peptide: Y[Aib]EGTFISDYSI[Aib]LDKQAA[Aib]EFVNWLL[Aib]GHPSSGAPPPSC
B15: GIP derivative of SEQ ID NO: 17 (peptide)
peptide: Y[Aib]EGTFISDYSIALEKQAQQDFVNWLLAGGPSSGAPPPSC
B16: GIP derivative of SEQ ID NO: 25 (peptide)
peptide: Y[Aib]EGTFISDYSIYLDKQAA[Aib]EFVQWLI[Aib]GGPSSGAPPPSC
B17: GIP derivative of SEQ ID NO: 16 (peptide)
peptide: Y[Aib]EGTFISDYSIAMDGIAQQDFVNWLLAQKPSSGAPPPSC
modifications: not fully specified
B18: GIP derivative of SEQ ID NO: 26 (peptide)
peptide: Y[Aib]EGTFISDYSIYLDKQAA[Aib]EFVQWLIAGHPSSGAPPPC
B19: GIP derivative of SEQ ID NO: 22 (peptide)
peptide: Y[Aib]EGTFISDYSIYLDKQAA[Aib]EFVNWLLAGHPSSGAPPPSC
B20: GIP derivative of SEQ ID NO: 11 (peptide)
peptide: Y[Aib]EGTFISDYSIAMDAIAQQDFVNWLLAQKGKKNDWKHNITQC
modifications: not fully specified; printed as YAibEGT FISDYSIAMDAIAQQDFVNWLLAQKGKKNDWKHNITQC
B21: GIP derivative of SEQ ID NO: 18 (peptide)
peptide: Y[Aib]EGTFISDYSIYLDKQAAQEFVNWLLAQKPSSGAPPPSC
B22: GIP derivative of SEQ ID NO: 12 (peptide)
peptide: Y[Aib]EGTFISDYSIYLDKQAA[Aib]EFVNWLLAQKGKKNDWKHNITQC
modifications: not fully specified
B23: GIP derivative of SEQ ID NO: 23 (peptide)
peptide: Y[Aib]EGTFISDYSIYLDKQAQKEFVNWLL[Aib]GGPSSGAPPPSC
B24: GIP derivative of SEQ ID NO: 19 (peptide)
peptide: Y[Aib]EGTFISDYSIYLDKQAA[Aib]EFVNWLL[Aib]GHPSSGAPPPSC
B25: GIP derivative of SEQ ID NO: 2 (peptide)
peptide: Y[Aib]EGTFISDYSIAMDAIAQQDFVNWLLAGGPSSGAPPPSC
B26: GIP derivative of SEQ ID NO: 20 (peptide)
peptide: Y[Aib]EGTFISDYSIYLDKQAA[Aib]EFVNWLL[Aib]GGPSSGAPPPSC

Biological target: T1, human GIP receptor
Experiment: cell-based or functional assay

Row | Binder | In vitro activity of GIP derivative compared to human native GIP in human GIP receptor (%) (cAMP EC50, LANCE cAMP kit, CHO cells)
1 | B1 | 19.6
2 | B2 | 13.9
3 | B3 | 1.9
4 | B4 | 12.1
5 | B5 | 17.4
6 | B6 | 123
7 | B7 | 31.1
8 | B8 | 49.3
9 | B9 | 15.6
10 | B10 | 10.5
11 | B11 | 2
12 | B12 | 17.4
13 | B13 | 31.1
14 | B14 | 183
15 | B15 | 111
16 | B16 | 78.3
17 | B17 | 11.3
18 | B18 | 66.7
19 | B19 | 71.6
20 | B20 | 122
21 | B21 | 13.6
22 | B22 | 49.2
23 | B23 | 87.6
24 | B24 | 66.7
25 | B25 | 13.9
26 | B26 | 75.3
